From US20190233495A1 (Sanofi, published 2019)
Non-standard residues stand in square brackets, D forms with d. Nle = CCCC[C@H](N)C(=O)O; Aib = CC(C)(N)C(=O)O

Each binder was assayed against T1, RXFP1 receptor (UniProt Q9HBX9 1-757, limits assumed) (assay: cell-based or functional assay).
T1 sequence (looked up): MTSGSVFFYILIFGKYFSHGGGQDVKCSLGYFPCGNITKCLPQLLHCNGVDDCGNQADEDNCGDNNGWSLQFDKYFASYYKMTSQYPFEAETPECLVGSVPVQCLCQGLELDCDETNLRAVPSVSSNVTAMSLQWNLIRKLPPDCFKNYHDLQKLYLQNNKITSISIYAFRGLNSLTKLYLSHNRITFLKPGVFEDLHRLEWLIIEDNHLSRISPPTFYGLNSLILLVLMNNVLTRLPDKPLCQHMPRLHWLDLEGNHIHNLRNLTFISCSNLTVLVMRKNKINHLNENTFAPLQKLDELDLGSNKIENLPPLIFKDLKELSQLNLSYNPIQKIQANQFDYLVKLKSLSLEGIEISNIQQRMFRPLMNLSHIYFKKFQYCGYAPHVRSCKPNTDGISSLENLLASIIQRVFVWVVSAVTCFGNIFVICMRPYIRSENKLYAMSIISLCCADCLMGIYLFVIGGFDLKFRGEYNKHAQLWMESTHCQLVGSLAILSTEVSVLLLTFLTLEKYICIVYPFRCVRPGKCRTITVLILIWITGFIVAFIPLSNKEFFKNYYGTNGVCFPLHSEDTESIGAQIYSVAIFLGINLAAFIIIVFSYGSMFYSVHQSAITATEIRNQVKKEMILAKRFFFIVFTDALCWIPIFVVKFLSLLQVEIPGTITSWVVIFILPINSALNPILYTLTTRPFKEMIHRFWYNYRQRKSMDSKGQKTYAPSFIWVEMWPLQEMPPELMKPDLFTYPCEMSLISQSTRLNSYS

| Binder | cAMP assay in OVCAR 5 cells EC50 | cAMP assay in OVCAR 5 cells Emax |
| --- | --- | --- |
| Ac-LEGREKVRAK(Ac)I[Aib][Aib]EG[Nle]STWS[Aib]RKK(Ac)-NH2 (SMILES CCCC[C@H](NC(=O)CNC(=O)[C@H](CCC(=O)O)NC(=O)C(C)(C)NC(=O)C(C)(C)NC(=O)[C@@H](NC(=O)[C@H](CCCCNC(C)=O)NC(=O)[C@H](C)NC(=O)[C@H](CCCNC(=N)N)NC(=O)[C@@H](NC(=O)[C@H](CCCCN)NC(=O)[C@H](CCC(=O)O)NC(=O)[C@H](CCCNC(=N)N)NC(=O)CNC(=O)[C@H](CCC(=O)O)NC(=O)[C@H](CC(C)C)NC(C)=O)C(C)C)[C@@H](C)CC)C(=O)N[C@@H](CO)C(=O)N[C@H](C(=O)N[C@@H](Cc1c[nH]c2ccccc12)C(=O)N[C@@H](CO)C(=O)NC(C)(C)C(=O)N[C@@H](CCCNC(=N)N)C(=O)N[C@@H](CCCCN)C(=O)N[C@@H](CCCCNC(C)=O)C(N)=O)[C@@H](C)O) [SEQ ID NO: 5] | 7.4 nM | 98% |
| Ac-LEGREKVRAQI[Aib][Aib]EG[Nle]STWS[Aib]RRR-NH2 (SMILES CCCC[C@H](NC(=O)CNC(=O)[C@H](CCC(=O)O)NC(=O)C(C)(C)NC(=O)C(C)(C)NC(=O)[C@@H](NC(=O)[C@H](CCC(N)=O)NC(=O)[C@H](C)NC(=O)[C@H](CCCNC(=N)N)NC(=O)[C@@H](NC(=O)[C@H](CCCCN)NC(=O)[C@H](CCC(=O)O)NC(=O)[C@H](CCCNC(=N)N)NC(=O)CNC(=O)[C@H](CCC(=O)O)NC(=O)[C@H](CC(C)C)NC(C)=O)C(C)C)[C@@H](C)CC)C(=O)N[C@@H](CO)C(=O)N[C@H](C(=O)N[C@@H](Cc1c[nH]c2ccccc12)C(=O)N[C@@H](CO)C(=O)NC(C)(C)C(=O)N[C@@H](CCCNC(=N)N)C(=O)N[C@@H](CCCNC(=N)N)C(=O)N[C@@H](CCCNC(=N)N)C(N)=O)[C@@H](C)O) [SEQ ID NO: 50] | 4.42 nM | 90% |
| H-LEGREKVRAQI[Aib]IEGMSKWSKRKK-NH2 (SMILES CC[C@H](C)[C@H](NC(=O)[C@H](CCC(N)=O)NC(=O)[C@H](C)NC(=O)[C@H](CCCNC(=N)N)NC(=O)[C@@H](NC(=O)[C@H](CCCCN)NC(=O)[C@H](CCC(=O)O)NC(=O)[C@H](CCCNC(=N)N)NC(=O)CNC(=O)[C@H](CCC(=O)O)NC(=O)[C@@H](N)CC(C)C)C(C)C)C(=O)NC(C)(C)C(=O)N[C@H](C(=O)N[C@@H](CCC(=O)O)C(=O)NCC(=O)N[C@@H](CCSC)C(=O)N[C@@H](CO)C(=O)N[C@@H](CCCCN)C(=O)N[C@@H](Cc1c[nH]c2ccccc12)C(=O)N[C@@H](CO)C(=O)N[C@@H](CCCCN)C(=O)N[C@@H](CCCNC(=N)N)C(=O)N[C@@H](CCCCN)C(=O)N[C@@H](CCCCN)C(N)=O)[C@@H](C)CC) [SEQ ID NO: 6] | 46.3 nM | 97% |
| Ac-LEGREKVRAQI[Aib][Aib]EG[Nle]SRWS[Aib]RRR-NH2 (SMILES CCCC[C@H](NC(=O)CNC(=O)[C@H](CCC(=O)O)NC(=O)C(C)(C)NC(=O)C(C)(C)NC(=O)[C@@H](NC(=O)[C@H](CCC(N)=O)NC(=O)[C@H](C)NC(=O)[C@H](CCCNC(=N)N)NC(=O)[C@@H](NC(=O)[C@H](CCCCN)NC(=O)[C@H](CCC(=O)O)NC(=O)[C@H](CCCNC(=N)N)NC(=O)CNC(=O)[C@H](CCC(=O)O)NC(=O)[C@H](CC(C)C)NC(C)=O)C(C)C)[C@@H](C)CC)C(=O)N[C@@H](CO)C(=O)N[C@@H](CCCNC(=N)N)C(=O)N[C@@H](Cc1c[nH]c2ccccc12)C(=O)N[C@@H](CO)C(=O)NC(C)(C)C(=O)N[C@@H](CCCNC(=N)N)C(=O)N[C@@H](CCCNC(=N)N)C(=O)N[C@@H](CCCNC(=N)N)C(N)=O) [SEQ ID NO: 55] | 4.9 nM | 88% |
| Ac-LEGREKVRAQI[Aib][Aib]EG[Nle]STFS[Aib]RKK-NH2 (SMILES CCCC[C@H](NC(=O)CNC(=O)[C@H](CCC(=O)O)NC(=O)C(C)(C)NC(=O)C(C)(C)NC(=O)[C@@H](NC(=O)[C@H](CCC(N)=O)NC(=O)[C@H](C)NC(=O)[C@H](CCCNC(=N)N)NC(=O)[C@@H](NC(=O)[C@H](CCCCN)NC(=O)[C@H](CCC(=O)O)NC(=O)[C@H](CCCNC(=N)N)NC(=O)CNC(=O)[C@H](CCC(=O)O)NC(=O)[C@H](CC(C)C)NC(C)=O)C(C)C)[C@@H](C)CC)C(=O)N[C@@H](CO)C(=O)N[C@H](C(=O)N[C@@H](Cc1ccccc1)C(=O)N[C@@H](CO)C(=O)NC(C)(C)C(=O)N[C@@H](CCCNC(=N)N)C(=O)N[C@@H](CCCCN)C(=O)N[C@@H](CCCCN)C(N)=O)[C@@H](C)O) [SEQ ID NO: 51] | 18.6 nM | 98% |
| Ac-LEGREKVRAQI[Aib][Aib]EGQSTWS[Aib]RKK-NH2 (SMILES CC[C@H](C)[C@H](NC(=O)[C@H](CCC(N)=O)NC(=O)[C@H](C)NC(=O)[C@H](CCCNC(=N)N)NC(=O)[C@@H](NC(=O)[C@H](CCCCN)NC(=O)[C@H](CCC(=O)O)NC(=O)[C@H](CCCNC(=N)N)NC(=O)CNC(=O)[C@H](CCC(=O)O)NC(=O)[C@H](CC(C)C)NC(C)=O)C(C)C)C(=O)NC(C)(C)C(=O)NC(C)(C)C(=O)N[C@@H](CCC(=O)O)C(=O)NCC(=O)N[C@@H](CCC(N)=O)C(=O)N[C@@H](CO)C(=O)N[C@H](C(=O)N[C@@H](Cc1c[nH]c2ccccc12)C(=O)N[C@@H](CO)C(=O)NC(C)(C)C(=O)N[C@@H](CCCNC(=N)N)C(=O)N[C@@H](CCCCN)C(=O)N[C@@H](CCCCN)C(N)=O)[C@@H](C)O) [SEQ ID NO: 54] | 22 nM |  |

Results, then the binder that gave them:

| cAMP assay in OVCAR 5 cells EC50 | cAMP assay in OVCAR 5 cells Emax | Binder |
| --- | --- | --- |
| 42.9 nM | 91% | Ac-LEGREKVRAQI[Aib]IEGMSKWSKRKK-NH2 (SMILES CC[C@H](C)[C@H](NC(=O)[C@H](CCC(N)=O)NC(=O)[C@H](C)NC(=O)[C@H](CCCNC(=N)N)NC(=O)[C@@H](NC(=O)[C@H](CCCCN)NC(=O)[C@H](CCC(=O)O)NC(=O)[C@H](CCCNC(=N)N)NC(=O)CNC(=O)[C@H](CCC(=O)O)NC(=O)[C@H](CC(C)C)NC(C)=O)C(C)C)C(=O)NC(C)(C)C(=O)N[C@H](C(=O)N[C@@H](CCC(=O)O)C(=O)NCC(=O)N[C@@H](CCSC)C(=O)N[C@@H](CO)C(=O)N[C@@H](CCCCN)C(=O)N[C@@H](Cc1c[nH]c2ccccc12)C(=O)N[C@@H](CO)C(=O)N[C@@H](CCCCN)C(=O)N[C@@H](CCCNC(=N)N)C(=O)N[C@@H](CCCCN)C(=O)N[C@@H](CCCCN)C(N)=O)[C@@H](C)CC) [SEQ ID NO: 1] |
| 9.15 nM | 94% | Ac-LEGREKVRAQI[Aib][Aib]EG[Nle]SQWS[Aib]RRR-NH2 (SMILES CCCC[C@H](NC(=O)CNC(=O)[C@H](CCC(=O)O)NC(=O)C(C)(C)NC(=O)C(C)(C)NC(=O)[C@@H](NC(=O)[C@H](CCC(N)=O)NC(=O)[C@H](C)NC(=O)[C@H](CCCNC(=N)N)NC(=O)[C@@H](NC(=O)[C@H](CCCCN)NC(=O)[C@H](CCC(=O)O)NC(=O)[C@H](CCCNC(=N)N)NC(=O)CNC(=O)[C@H](CCC(=O)O)NC(=O)[C@H](CC(C)C)NC(C)=O)C(C)C)[C@@H](C)CC)C(=O)N[C@@H](CO)C(=O)N[C@@H](CCC(N)=O)C(=O)N[C@@H](Cc1c[nH]c2ccccc12)C(=O)N[C@@H](CO)C(=O)NC(C)(C)C(=O)N[C@@H](CCCNC(=N)N)C(=O)N[C@@H](CCCNC(=N)N)C(=O)N[C@@H](CCCNC(=N)N)C(N)=O) [SEQ ID NO: 52] |
| 76.2 nM | 75% | Ac-LEGREKVRAQI[Aib][Aib]EG[Nle]STYS[Aib]RKK-NH2 (SMILES CCCC[C@H](NC(=O)CNC(=O)[C@H](CCC(=O)O)NC(=O)C(C)(C)NC(=O)C(C)(C)NC(=O)[C@@H](NC(=O)[C@H](CCC(N)=O)NC(=O)[C@H](C)NC(=O)[C@H](CCCNC(=N)N)NC(=O)[C@@H](NC(=O)[C@H](CCCCN)NC(=O)[C@H](CCC(=O)O)NC(=O)[C@H](CCCNC(=N)N)NC(=O)CNC(=O)[C@H](CCC(=O)O)NC(=O)[C@H](CC(C)C)NC(C)=O)C(C)C)[C@@H](C)CC)C(=O)N[C@@H](CO)C(=O)N[C@H](C(=O)N[C@@H](Cc1ccc(O)cc1)C(=O)N[C@@H](CO)C(=O)NC(C)(C)C(=O)N[C@@H](CCCNC(=N)N)C(=O)N[C@@H](CCCCN)C(=O)N[C@@H](CCCCN)C(N)=O)[C@@H](C)O) [SEQ ID NO: 53] |
